Key:
Format in all cases: cell-based, mice
CREB = experiment: Immunoblot analysis with phospho-specific antibodies, CREB; details: rVEGFD treatment for various lengths of time
Method: (§1) A: Immunoblot analysis using phosphor-specific antibodies of hippocampal neurons with or without rVEGFD treatment for the indicated times. Tubulin was used as loading control.
(§2) B: Quantification of the experiment shown in A. rVEGFD treatment causes a significant increase of CREB, ERK1/2 and p38 MAP kinase phosphorylation. All values are expressed as percentage of untreated controls (n=5).
(§3) Next, the signaling mechanisms through which VEGFD controls dendrite architecture were determined. Cell lysates from hippocampal neurons treated with rVEGFD for various lengths of time were subjected to immunoblot analysis using a large panel of antibodies that are specific for the phosphorylated (i.e. activated) forms of signaling molecules (FIG. 9). […] Therefore, it was determined whether p38 MAPK mediates the effects of VEGFD on dendrite geometry. […] Because SB203580 inhibits the alpha and beta isoforms of p38 MAPK, the role of p38 MAPK in VEGFD-mediated dendritic arborization by RNAi was further investigated. Two pAAVs, shp38α and shp38β, that contain expression cassettes for shRNAs specific for the alpha and the beta isoform, respectively, of p38 MAPK, were generated.

p38 MAP kinase = experiment: Immunoblot analysis with phospho-specific antibodies, p38 MAP kinase; details: rVEGFD treatment for various lengths of time
Method: as §1, §2, §3

hippocampal cultures = experiment: MEA recordings of spontaneous network activity; details: rAAV-shVEGFD infected cultures, 100 ng/ml rVEGFD added to media
Method: MEA recordings were done as known in the art. From DIV7 to DIV13, recordings of spontaneous network activity were acquired for 5 min once per day.

ERK1/2 = experiment: Immunoblot analysis with phospho-specific antibodies, ERK1/2; details: rVEGFD treatment for various lengths of time
Method: as §1, §2, §3

hippocampal neurons = experiment: Morphometric analyses (total dendritic length, Sholl analysis, spine density) of cultured hippocampal neurons
Method: Hippocampal neurons from newborn C57BL/6 mice were cultured as known in the art. Experiments were done after a culturing period of 10 to 14 days in vitro (DIV). DNA transfection was done on DIV8 using Lipofectamine 2000 (Invitrogen, San Diego, Calif.). For the studies on dendrite morphology, neurons were analyzed 4-5 days after transfection.
For 3D Sholl Analysis, total dendritic length and spine morphology were calculated using Object-Image freeware software with a specific set of macros (written by Dr. E. Ruthazer, McGill University, Quebec). Briefly, a z-Stack acquisition was imported, calibrated in Object-Image and manually traced. Total dendritic length was then computed. For Sholl analysis, the shell interval was set at 5 μm. All analyses were performed blind. In all in vitro experiments, for each condition, a minimum of 12 neurons from three independent preparations was analyzed. For the Golgi staining quantifications of 20 neurons for each condition from 4 different injected animals per viral construct were traced and analyzed.
Hippocampal neurons were fixed with 4% paraformaldehyde at room temperature for 20 min. For immunostaining, primary and secondary antibodies were applied in GDB buffer (30 mM phosphate buffer [pH7.4] containing 0.2% gelatin, 0.5% Triton X-100, and 0.9 M NaCl). For the morphometric analyses, fluorescence images were acquired using a confocal laser-scanning microscope TCS SP2 (Leica, Mannheim, Germany) equipped with an inverted fluorescence microscope DM IRE2 (Leica) and Leica confocal scan software. All images were obtained with sequential acquisition setting at a resolution of 1024×1024 pixels. Each image was a z series projection of images taken at 1 μm intervals.

B1: rVEGFD: recombinant mouse VEGFD (R&D Systems) (protein)
chain: FAATFYDTETLKVIDEEWQRTQCSPRETCVEVASELGKTTNTFFKPPCVNVFRCGGCCNEEGVMCMNTSTSYISKQLFEISVPLTSVPELVPVKIANHTGCKCLPTGPRHPYSIIRR
CREB
  CREB phosphorylation: significant but moderate
p38 MAP kinase
  activation of p38 MAPK: very robust
Hippocampal cultures
  rescue of decreased spike frequency: partly rescued
ERK1/2
  ERK1/2 phosphorylation: significant but moderate
Hippocampal neurons; neurons transfected with pAAV-shSCR and pAAV-emptymC, rVEGFD 100 ng/ml 3 days
  dendrite length or complexity: did not affect dendrite length or complexity
Hippocampal neurons; neurons without nuclear calcium signaling blockade
  neuronal morphology: no detectable effect on neuronal morphology
Hippocampal neurons; pAAV-shVEGFD transfected neurons, rVEGFD 100 ng/ml 3 days or co-transfection
  effect on reduction of dendrite length and complexity caused by shVEGFD: reversed
Hippocampal neurons; rVEGFD 100 ng/ml 3 days or VEGFD-HA expression
  restoration of spine density in CaMBP4 or CaMKIVK75E expressing neurons: failed to restore normal spine density
Hippocampal neurons; recombinant factors 100 ng/ml for 3 days, or VEGFD-HA expression
  rescue of reduction in dendrite length and complexity caused by CaMBP4 or CaMKIVK75E: rescued the reduction in dendrite length and complexity

Source: patent publication US20120308554A1, “VEGF-D/VEGFR2/3-MEDIATED REGULATION OF DENDRITES” (UNIVERSITAT HEIDELBERG, priority 2011, published 2012)
